Measurements: US20090227507A1, “Angiotensin (1-7) Dosage Forms and Uses Thereof” (UNIVERSITY OF SOUTHERN CALIFORNIA, priority 2008, published 2009)

Assay: Hematology profile (CBC with differential, platelet count) in healthy men;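 on Platelet Count, Median Change from Baseline: Thousands of platelets per mm³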;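 on Platelet Count, Median: Thousands of platelets per mm³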
Format: in vivo, human
Settings: for number of various white blood cell types in peripheral blood above baseline levels: human administration
Method: Pharmacological Effect: The following evaluations (under efficacy and safety in the protocol) were performed: • Effects on the number of mature blood cells: • 1. CBC (with differential), platelet count, reticulocyte count. • Effects on early hematopoietic progenitor cells and mature lymphocyte subsets in the periphery: • 1. Flow cytometry to evaluate frequency of peripheral blood progenitor cells (eg, CD34^+) and lymphocyte subsets (eg, CD3, CD4, CD8) in peripheral blood. • 2. Collection of blood for later possible culture for progenitor cells (eg, colony forming units-granulocyte/macrophage [CFU-GM]) to evaluate potential effects on CD34^+ hematopoietic progenitor cells in peripheral blood. • 3.
The effect of USB003 on the number of mature blood cells was assessed by the complete blood count with differential, platelet and reticulocyte counts. The effects on early hematopoietic progenitor cells and mature lymphocyte subsets in the periphery were assessed by flow cytometry. In addition, blood was collected and processed to enable culture of progenitors at a later time.
Red blood cell (RBC) count, RBC indices, white blood cell count (WBC) with differential, reticulocyte count, platelet count, hemoglobin (Hb), hematocrit (Hct), plasma hemoglobin, peripheral flow cytometry, including CD34^+, flow cytometry for enumeration of CD3, CD4, and CD8 lymphocytes, and culture for progenitor cells in peripheral blood including colony-forming units-granulocyte/macrophage (CFU-GM).

[1] = 300 μg/kg, N = 8, baseline to Day 20
[2] = 300 μg/kg, Study Termination Visit Day 19
[3] = 300 μg/kg, repeat test 10 days later
[4] = Subject 042, 300 μg/kg, Day 29 U (unscheduled)

**Q.** What does the source list for Asp-Arg-Val-Tyr-Ile-His-Pro [USB003]?
**A.** Platelet Count shift N-H, number of subjects [1]: — (“—” = 0); Platelet Count shift N-L, number of subjects [1]: — (“—” = 0); RBC shift H-N, number of subjects [1]: — (“—” = 0); RBC shift L-N, number of subjects [1]: — (“—” = 0); RBC shift N-H, number of subjects [1]: — (“—” = 0); RBC shift N-L, number of subjects [1]: 2; RDW shift H-N, number of subjects [1]: — (“—” = 0); RDW shift L-N, number of subjects [1]: — (“—” = 0); RDW shift N-H, number of subjects [1]: — (“—” = 0); RDW shift N-L, number of subjects [1]: — (“—” = 0); Segmented Neutrophils shift H-N, number of subjects [1]: — (“—” = 0); Segmented Neutrophils shift L-N, number of subjects [1]: — (“—” = 0); Segmented Neutrophils shift N-H, number of subjects [1]: 2; Segmented Neutrophils shift N-L, number of subjects [1]: — (“—” = 0); WBC shift H-N, number of subjects [1]: — (“—” = 0); WBC shift L-N, number of subjects [1]: — (“—” = 0); WBC shift N-H, number of subjects [1]: 1; WBC shift N-L, number of subjects [1]: — (“—” = 0); Absolute Neutrophils, Median (300 μg/kg, Baseline): 2.85 thousands/mm^3; Hematocrit, Median (300 μg/kg, Baseline): 45.25%; Hemoglobin, Median (300 μg/kg, Baseline): 15.60 g/dL; Lymphocytes, Median (300 μg/kg, Baseline): 33.60%; Platelet Count, Median (300 μg/kg, Baseline): 216.0 thousands/mm^3; WBC, Median (300 μg/kg, Baseline): 5.15 thousands/mm^3; Absolute Neutrophils, Median (300 μg/kg, Day 8): 2.95 thousands/mm^3; Absolute Neutrophils, Median Change from Baseline (300 μg/kg, Day 8): −0.10 thousands/mm^3; Hematocrit, Median (300 μg/kg, Day 8): 42.30%; Hematocrit, Median Change from Baseline (300 μg/kg, Day 8): −2.10%; Hemoglobin, Median (300 μg/kg, Day 8): 14.40 g/dL; Hemoglobin, Median Change from Baseline (300 μg/kg, Day 8): -1.15 g/dL; Lymphocytes, Median (300 μg/kg, Day 8): 34.50%; Lymphocytes, Median Change from Baseline (300 μg/kg, Day 8): 1.00%; Platelet Count, Median (300 μg/kg, Day 8): 243.0 thousands/mm^3; Platelet Count, Median Change from Baseline (300 μg/kg, Day 8): 22.5 thousands/mm^3; WBC, Median (300 μg/kg, Day 8): 5.65 thousands/mm^3; WBC, Median Change from Baseline (300 μg/kg, Day 8): −0.30 thousands/mm^3; Absolute Neutrophils, Median (300 μg/kg, Day 20): 3.80 thousands/mm^3; Absolute Neutrophils, Median Change from Baseline (300 μg/kg, Day 20): 0.75 thousands/mm^3; Hematocrit, Median (300 μg/kg, Day 20): 40.45%; Hematocrit, Median Change from Baseline (300 μg/kg, Day 20): −3.45%; Hemoglobin, Median (300 μg/kg, Day 20): 14.0 g/dL; Hemoglobin, Median Change from Baseline (300 μg/kg, Day 20): -1.30 g/dL; Lymphocytes, Median (300 μg/kg, Day 20): 29.75%; Lymphocytes, Median Change from Baseline (300 μg/kg, Day 20): −3.90%; Platelet Count, Median (300 μg/kg, Day 20): 243.5 thousands/mm^3; Platelet Count, Median Change from Baseline (300 μg/kg, Day 20): 14 thousands/mm^3; WBC, Median (300 μg/kg, Day 20): 6.55 thousands/mm^3; WBC, Median Change from Baseline (300 μg/kg, Day 20): 1.30 thousands/mm^3; WBC value, Subject 042 [2]: 13,400 cells/mm^3; segmented neutrophils, Subject 042 [2]: 84.9%; WBC count, Subject 042 [3]: 8,900 cells/mm^3; segmented neutrophils, Subject 042 [3]: 73.5%; total WBC and neutrophil concentrations (200 and 300 μg/kg SC): increases; WBC Significance (Subject 027, 200 μg/kg, Day 11): CS AE; WBC Value (Subject 027, 200 μg/kg, Day 11): 12.7 10^3/mm³; WBC High/Low Normal/Abnormal (Subject 027, 200 μg/kg, Day 14): N; WBC Value (Subject 027, 200 μg/kg, Day 14): 7.3 10^3/mm³; Segmented Neutrophils Significance (Subject 042, 300 μg/kg, Day 19): CS AE; Segmented Neutrophils Value (Subject 042, 300 μg/kg, Day 19): 84.9%; WBC Significance (Subject 042, 300 μg/kg, Day 19): CS AE; WBC Value (Subject 042, 300 μg/kg, Day 19): 13.4 10^3/mm³; Segmented Neutrophils Significance [4]: NCS; Segmented Neutrophils Value [4]: 73.5%; WBC High/Low Normal/Abnormal [4]: N; WBC Value [4]: 8.9 10^3/mm³; peripheral blood concentrations of WBC, neutrophils, CD3, CD34+, CD4 and CD8 (during the administration of USB003): elevations; time for all hematological parameters to return to baseline (following discontinuation of USB003 administration): ≤ 12 days; number of various white blood cell types in peripheral blood above baseline levels (doses of 300 μg/kg or more): increasing the number of various white blood cell types; number of various white blood cell types in peripheral blood above baseline levels (lower doses (200 μg/kg)): did not provide such an increase over baseline
